The values below come from patent US20150266963A1.

Assay [1] addresses rhesus recombinant CD70 (FLAG-TNC-rhesus CD70) (rhesus). The experiment in a line: blocking ELISA; rhesus Flag-TNC-CD70; competitor CD27-Fc. A general note: ELISA stands for enzyme-linked immunosorbent assay.
Assay [2] has as its target T1, human CD70 expressed on the surface of cells (human) (UniProt P32970).
T1 sequence (looked up): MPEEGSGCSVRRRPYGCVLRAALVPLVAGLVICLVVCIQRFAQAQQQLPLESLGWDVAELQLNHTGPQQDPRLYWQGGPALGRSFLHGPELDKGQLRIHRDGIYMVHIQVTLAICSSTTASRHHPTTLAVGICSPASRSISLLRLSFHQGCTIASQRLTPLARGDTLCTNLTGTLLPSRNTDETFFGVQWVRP
As to the kind of experiment: cell-based or functional assay.

The target of assay [3] is cynomolgus monkey Flag-TNC-CD70 (cynomolgus monkey). As to the kind of experiment: blocking ELISA; cynomolgus Flag-TNC-CD70; competitor CD27-Fc.
Assay [4] concerns the target T1, human CD70 expressed on the surface of cells (human). As to the kind of experiment: flow cytometry on U266 cells, goat anti human IgG1 FITC [panel U266].
Assay [5] addresses T2, rhesus CD70 on LCL8664 cells (rhesus) (UniProt F7GPA5).
T2 sequence: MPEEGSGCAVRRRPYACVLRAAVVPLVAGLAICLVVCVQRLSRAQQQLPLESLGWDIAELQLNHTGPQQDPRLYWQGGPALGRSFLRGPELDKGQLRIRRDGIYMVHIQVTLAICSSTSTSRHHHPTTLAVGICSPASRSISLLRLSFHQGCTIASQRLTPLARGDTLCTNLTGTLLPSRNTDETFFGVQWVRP
As to the kind of experiment: flow cytometry on rhesus LCL8664 cells, goat anti human IgG1 FITC [panel Rhesus monkey]. In general terms: A flow cytometer gives signals particle by particle.

In assay [6] the target is T3, recombinant human CD70 (Flag-TNC-CD70) (human) (UniProt P32970).
T3 sequence (looked up): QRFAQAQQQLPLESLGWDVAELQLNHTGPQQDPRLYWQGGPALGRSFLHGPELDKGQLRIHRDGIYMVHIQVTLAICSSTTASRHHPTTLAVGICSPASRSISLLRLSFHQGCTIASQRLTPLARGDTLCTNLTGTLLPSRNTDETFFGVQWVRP
The experiment in a line: inhibition ELISA; Flag-TNC-CD70 captured by anti-Flag mAb; competitor CD27-Fc.

In assay [7] the target is T3, recombinant human CD70 (Flag-TNC-CD70) (human). The experiment in a line: blocking ELISA; Flag-TNC-CD70 captured by anti-FLAG M2; competitor CD27-Fc 6.5 nM.
The target is the same in assay [8]. As to the kind of experiment: blocking ELISA; human Flag-TNC-CD70; competitor CD27-Fc.
The target in assay [9] is T1, human CD70 expressed on the surface of cells (human). As to the kind of experiment: flow cytometry on U266 cells, 1 h at 4 °C, anti-hIgG1-Fc-FITC or anti-hIgG-Fc-PE [panel U266].
Assay [10] addresses T3, recombinant human CD70 (Flag-TNC-CD70) (human). The experiment in a line: Biacore; recombinant human CD70 on CM5 chip; Fab injected. In general terms: Surface plasmon resonance follows binding to a sensor surface in real time, without labels.
The target is the same in assay [11]. As to the kind of experiment: Biacore; recombinant human CD70 on CM5 chip; Fab from papain digestion.

B1: SGN70 (antibody, INN chains, looked up, V domains shown)
VH: QVQLVQSGAEVKKPGASVKVSCKASGYTFTNYGMNWVRQAPGQGLKWMGWINTYTGEPTYADAFKGRVTMTRDTSISTAYMELSRLRSDDTAVYYCARDYGDYGMDYWGQGTTVTVSS
VL: DIVMTQSPDSLAVSLGERATINCRASKSVSTSGYSFMHWYQQKPGQPPKLLIYLASNLESGVPDRFSGSGSGTDFTLTISSLQAEDVAVYYCQHSREVPWTFGQGTKVEIK
Broadly, the IC50 is the concentration needed to halve the response being measured. Usually EC50 (read off the curve) stands for the midpoint of the concentration-response curve. Regarding B1, the IC50 in assay [1] worked out at 0.178 µg/mL; in assay [3], 0.112 µg/mL; in assay [6] it was 0.33 µg/mL; in [7], 4.97 µg/mL; in [8], 0.054 µg/mL. The same molecule gave an IC50 (ng/ml), IL-8 secretion in Raji / HT1080-CD27 co-culture assay in assay [2] of 55 ng/mL. Also, the values for the EC50 (read off the curve) in assay [4], in assay [5] and in assay [9] were 0.08 µg/mL, 0.1 µg/mL and 0.08 µg/mL, respectively.

B2: SGN70-Fab (Fab, INN chains, looked up, V domains shown)
VH: B1 VH
VL: B1 VL
modifications: Fab
The term koff denotes a measure of how fast the partners let go of each other. Regarding B2, the off-rate constant (koff) in [10] and in assay [11] was 0.0007 s⁻¹ in each case.
